This series in a line: yeast display, Sf9 membrane polyspecificity reagent, FACS + sequencing; frameworks hold sequencing errors. The method in brief:
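Sorting gates, low and high (top ~1%), were placed on anti-HA fluorescence to track expression and on streptavidin fluorescence to track reagent binding. A clone's polyreactivity label is taken from the gate it came out of. The reagent was 10% biotinylated, detergent-solubilized Sf9 membrane, applied for 1 hour at 4 °C to galactose-induced yeast display cells.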
Consider “QVQLVESGGGLVQAGGSLRLSCAASGRIFRYYVMGWYRQAPGKERELVAAISRSGGSTRYADSVKGRFTISRDNAKNTVYLQMNSLKPEDTAVYYCAATSRSYNDYDYWGQGTQVTVSS”, for which the “polyreactivity (PSR sort gate)” value is on record as “high polyreactivity”.
Under “QVQLVESGGGLVQAGGSLRLSCAASGRIFSANAMGWYRQAPGKERELVAAITRGDNTYYADSVKGRFTISRDNAKNTVYLQMNSLKPEDTAVYYCATEGYQIQYEHDYWGQGTQLTVSS” stands “low polyreactivity”; under “QVQLVESGGGLVQAGGSLRLSCAASGRIFSDYAMGWYIQAPGKERELVAAISWGGGRTYYADSVKGRFTISRDNAKNTVYLQMNSLKPEDTAVYYCNRGTVNSWARGYWGQGTQVTVSS”, “high polyreactivity”.
Under “QVQLVESGGGLVQAGGSLRLSCAASGRIFSDYAMGWYRQAPGKERELVAAISRSGTRTYYADSVKGRFTISRDNAKNTVYLQMNSLKPEDTAVYSCAAKTPYGRAGQEEDYCGQGTQVTVSS” stands “high polyreactivity”; under “QVQLVESGGGLVQAGGSLRLSCAASGRIFSFYAMGWYRQAPGKERELVATISKRAGSTYYADSVKGRFTISRDNAKNTVYLQMNSLKPEDTEVYYCYAYKRGYLYRYNYWGQGTQVTVSS”, “high polyreactivity”.
The same measure for “QVQLVESGGGLVQAGGSLRLSCAASGRIFSFYTMGWYRQAPGKERELVAAITWRGGSTYYADSVKGRFTISRDNAKNTVYLQMNSLKPEDTAVYYCAAEVYGAVYDYWGQGTQVTVSS”: “low polyreactivity”; for “QVQLVESGGGLVQAGGSLRLSCAASGRIFSGNAMGWYRQAPGKERELVARISRSGSNTYYADSVKGRFTISRDNAKNTVYLQMKSLKPEDTAVYYCAAKSTYWPYDRTYNSWGQVTQVTVSS”: “high polyreactivity”.
Consider “QVQLVESGGGLVQAGGSLRLSCAASGRIFSGYAMGWDRQAPGKERELVAAITSRSGSTYYADSVKGRFTISRDNAKNTVYLQMNSLKPEDTAVYYCAKRLYKPGNVFYSVDQSDYWGQGTQVTVSS”, for which the “polyreactivity (PSR sort gate)” value is given as “low polyreactivity”.
Turning to “QVQLVESGGGLVQAGGSLRLSCAASGRIFSGYAMGWYRQAPGKEREFVAAITSSGRTKYADSVKGRFTISRDNAKNTVYLQMNSLKPEDTAVYYCAARPSQWNYDYRRVYYWGQGTQVTVSS”, the “polyreactivity (PSR sort gate)” value is reported as “high polyreactivity”.
Under “QVQLVESGGGLVQAGGSLRLSCAASGRIFSGYAMGWYRQAPGKERELVAAITSGASTNYADSVKGRFTISRDNAKNTVYLQMNSLKPEDTAVYYCAATYHTWRGQYLWYDYWGQGTQVTVSW” stands “low polyreactivity”; under “QVQLVESGGGLVQAGGSLRLSCAASGRIFSGYAMGWYRQAPGKERELVAAITSVGSTNYADSVKGRFTISRDNAKNNVYLQMNSLKPEDTAVYYCAARSQSYYRYRSYGYWGQGTQVTVSS”, “high polyreactivity”; under “QVQLVESGGGLVQAGGSLRLSCAASGRIFSGYAMGWYRQAPGKERELVAAITSVGSTNYADSVKGRFTISRDNAKYTVYLQMNSLKPEDTAVYYCAKDTGQGYYWGQGTQVTVSS”, “high polyreactivity”.
The same measure for “QVQLVESGGGLVQAGGSLRLSCAASGRIFSGYAMGWYRQAPGKEWELVAAITWSGGSTYADSVKGRFTISRDNAKHTVYLQMNTLKPEDTAVYYCNTSARYNGSYKYDYWGQGTQVTVSS”: “low polyreactivity”; for “QVQLVESGGGLVQAGGSLRLSCAASGRIFSHYAMAWYRQAPGKERELVAAITSDRSTNYADSVKGRFTISRDNANNTVYLQMNSLKPDDTAVYYCAKYVHIPYYYYLFGSYDYWGQGTQVTVSS”: “low polyreactivity”; for “QVQLVESGGGLVQAGGSLRLSCAASGRIFSHYAMGWYRQAPGKERELVAAINRSGGSTYYADSVKGRFTISRDNAKNTVYLQMNSLKPEDTAVYYCAATSLRRYGYNYWGQGTQVTVSS”: “high polyreactivity”.
The same measure for “QVQLVESGGGLVQAGGSLRLSCAASGRIFSHYAMGWYRQAPGKERELVAAITWSGGRTYYADSVKGRFTISRDNAKNTVYLQMNSLKPEDTAVYYCNAYPSSSLFDYWGQGTQVTVSS”: “low polyreactivity”.
Consider “QVQLVESGGGLVQAGGSLRLSCAASGRIFSKYAMGWNRQAPGKERELVAAITSSTKYADSVKGRFTISRDNAKNTVYLQMNSLKPEDTAVYYCNAEFGWHTYYGADFKMDYWGQGTQVTVSS”, for which the “polyreactivity (PSR sort gate)” value was “high polyreactivity”.
As to “QVQLVESGGGLVQAGGSLRLSCAASGRIFSKYAMGWYRQAPGKEMELDAAITRSGGSTYYADSVKGRFTISRDNAKNTVYLQMNSLKPEDTAVYYCNAGTYSTSVPYRYNYWGQGTQVTVSS”, the “polyreactivity (PSR sort gate)” value is given as “high polyreactivity”.
The same measure for “QVQLVESGGGLVQAGGSLRLSCAASGRIFSLNAMGWYRQAPGKERELVAGIRKRGGSTYYADSVKGRFTISRDNAKNTVYLQMNSLKPEDTAVYYCAARFYYGPGGYTMYYWGQGTQVTVSS”: “high polyreactivity”; for “QVQLVESGGGLVQAGGSLRLSCAASGRIFSNNVMGWNRQGPGKERELVATISTDGRTNYADSVKGRFTISRDNAKNTVYLQMNSQKPEDTAVSYCAATGVTLLLSSKSDYWGQGTQVTVSS”: “low polyreactivity”; for “QVQLVESGGGLVQAGGSLRLSCAASGRIFSNYAMGWYRQAPGKERELVAAISYSGDSTYYADSVKGRFTISRDNAKNTVYLQMNSLKPEDTAVYYCAAVRSYRRYPQSSDLYYYWGQGTQVTVSS”: “high polyreactivity”.
The same measure for “QVQLVESGGGLVQAGGSLRLSCAASGRIFSPNAMGWYRQAPGKERELVAAISWRGRTYYADSVKGRFTISRDNAKNTVYLQMNSLKPEDTAVYYCNAPYKYVRGDYWGQGTQVTVSS”: “high polyreactivity”; for “QVQLVESGGGLVQAGGSLRLSCAASGRIFSPNAMGWYRQAPGKERELVAAITRGGSTNYADSVKGRFTISRDNAKNTVYLQMNSLKPEDTAVYYCAAQLAKTISGRGYNSWGQGTQVTVSS”: “low polyreactivity”.
Under “QVQLVESGGGLVQAGGSLRLSCAASGRIFSPYAMGWYRQAPGKERELVAAISSSGTYYADSVKGRFTISRDNAKNTVYLQMNSLKPEDTAVYYCNARRYWGRYDYWGQGTQVTVSS” stands “high polyreactivity”; under “QVQLVESGGGLVQAGGSLRLSCAASGRIFSPYAMGWYRQAPGKERELVAAITSSGGSSYYADSVKGRFTISRDYAKNTVYLQMNSLKPEDTAVYYCNARRGRYTPSVNYWGQGTQVTVSS”, “high polyreactivity”.
For “QVQLVESGGGLVQAGGSLRLSCAASGRIFSPYAMGWYRQAPGKERELVATITSGGSTNYADSVKGRFTISRDNAKNTVYLQKNSLKPEDTAVYYCNAVYYSNPYYYSRVWQYYYWGQGTQVTVSS”, the “polyreactivity (PSR sort gate)” value is listed as “low polyreactivity”.
The same measure for “QVQLVESGGGLVQAGGSLRLSCAASGRIFSRNAMGWSRQAPGKERELVAAISRSGGTTYYADSVKGRFTISRDNAKNTVYLQMISLKPEDTAVYYCAAYFWFYVQYEYWGQGTQVTVSS”: “high polyreactivity”; for “QVQLVESGGGLVQAGGSLRLSCAASGRIFSRNAMGWYRQAPGKERELVAAISGSGGSTYYADSVKGRFTISRDNAKNTVYLQMNSLKPEDTAVYYCNKFGYHREYDYWGQGTQVTVSS”: “low polyreactivity”.
Under “QVQLVESGGGLVQAGGSLRLSCAASGRIFSRNAMGWYRQAPGKERELVAAISRTGGSTYYADSVKGRFTISRDNAKNTVYLQMNSLKPEDTAVYYCADAYYRKSSYGQIVEYDYWGQGTQVTVSS” stands “high polyreactivity”; under “QVQLVESGGGLVQAGGSLRLSCAASGRIFSRNAMGWYRQAPGKERELVAGISARGGRTYYADSVKGRFTNSRDNAKNTVYLQMNSLKPEDTAVYYCAASFSAIRGGVRVTIDYYWGQGTQVTVSS”, “high polyreactivity”.

(Values after the nanobody polyreactivity screen of Harvey et al. (2022).)
